Assay [1] concerns the target iRFP713. Kind of assay: SEC; side-by-side comparison of miRFPs with IFP2.0 and iRFP713 (Supplementary Fig. 3 or 4), HiLoad 16/600 Superdex 200; concentration not given. For orientation: SEC sorts molecules by how far they enter the pores of the column.
The target of assay [2] is iRFP713. As to the kind of experiment: AUC; sedimentation velocity, 20 °C, 58,000 r.p.m., PBS, absorbance at 645 nm, protein at A645 ≈0.9; side-by-side comparison of miRFPs with IFP2.0 and iRFP713.
For assay [3], the target named is IFP2.0. Kind of assay: SEC; side-by-side comparison of miRFPs with IFP2.0 and iRFP713 (Supplementary Fig. 3 or 4), HiLoad 16/600 Superdex 200; concentration not given.
Assay [4] addresses IFP2.0. As to the kind of experiment: AUC; sedimentation velocity, 20 °C, 58,000 r.p.m., PBS, absorbance at 645 nm, protein at A645 ≈0.9; side-by-side comparison of miRFPs with IFP2.0 and iRFP713.

These results are taken from paper PMC4992171.

In the case of iRFP713, the stoichiometry N in the assay with iRFP713 [1] and with iRFP713 [2] was 2 throughout.
As for IFP2.0, the stoichiometry N in the assay with IFP2.0 [3] and with IFP2.0 [4] was 2 in each case.

Broadly, the stoichiometry N is the number of molecules, sites or subunits per partner or assembly.
